Assay results reported in ChEMBL document CHEMBL3525949, “Role of organic anion-transporting polypeptides for cellular mesalazine (5-aminosalicylic acid) uptake” (Drug Metab Dispos, 2011).

Key:
[1] = substrate: Nc1ccc(O)c(C(=O)O)c1; assay: Drug uptake in human OATP1B1 expressed HEK293 cells assessed as net uptake; type: ADME, cell-based
[2] = substrate: Nc1ccc(O)c(C(=O)O)c1; assay: Drug uptake in human OATP2B1 expressed HEK293 cells assessed as net uptake; type: ADME, cell-based

Row | Protein | Km [1] [µM] | Vmax [1] [µmol/min] | Km [2] [µM] | Vmax [2] [µmol/min]
1 | Solute carrier organic anion transporter family member 1B1 (Homo sapiens) (protein) MDQNQHLNKTAEAQPSENKKTRYCNGLKMFLAALSLSFIAKTLGAIIMKSSIIHIERRFEISSSLVGFIDGSFEIGNLLVIVFVSYFGSKLHRPKLIGIGCFIMGIGGVLTALPHFFMGYYRYSKETNINSSENSTSTLSTCLINQILSLNRASPEIVGKGCLKESGSYMWIYVFMGNMLRGIGETPIVPLGLSYIDDFAKEGHSSLYLGILNAIAMIGPIIGFTLGSLFSKMYVDIGYVDLSTIRITPTDSRWVGAWWLNFLVSGLFSIISSIPFFFLPQTPNKPQKERKASLSLHVLETNDEKDQTANLTNQGKNITKNVTGFFQSFKSILTNPLYVMFVLLTLLQVSSYIGAFTYVFKYVEQQYGQPSSKANILLGVITIPIFASGMFLGGYIIKKFKLNTVGIAKFSCFTAVMSLSFYLLYFFILCENKSVAGLTMTYDGNNPVTSHRDVPLSYCNSDCNCDESQWEPVCGNNGITYISPCLAGCKSSSGNKKPIVFYNCSCLEVTGLQNRNYSAHLGECPRDDACTRKFYFFVAIQVLNLFFSALGGTSHVMLIVKIVQPELKSLALGFHSMVIRALGGILAPIYFGALIDTTCIKWSTNNCGTRGSCRTYNSTSFSRVYLGLSSMLRVSSLVLYIILIYAMKKKYQEKDINASENGSVMDEANLESLNKNKHFVPSAGADSETHC | 55.1 | 2.83e-05 | – | –
2 | Solute carrier organic anion transporter family member 2B1 (Homo sapiens) (protein) MGPRIGPAGEVPQVPDKETKATMGTENTPGGKASPDPQDVRPSVFHNIKLFVLCHSLLQLAQLMISGYLKSSISTVEKRFGLSSQTSGLLASFNEVGNTALIVFVSYFGSRVHRPRMIGYGAILVALAGLLMTLPHFISEPYRYDNTSPEDMPQDFKASLCLPTTSAPASAPSNGNCSSYTETQHLSVVGIMFVAQTLLGVGGVPIQPFGISYIDDFAHNSNSPLYLGILFAVTMMGPGLAFGLGSLMLRLYVDINQMPEGGISLTIKDPRWVGAWWLGFLIAAGAVALAAIPYFFFPKEMPKEKRELQFRRKVLAVTDSPARKGKDSPSKQSPGESTKKQDGLVQIAPNLTVIQFIKVFPRVLLQTLRHPIFLLVVLSQVCLSSMAAGMATFLPKFLERQFSITASYANLLIGCLSFPSVIVGIVVGGVLVKRLHLGPVGCGALCLLGMLLCLFFSLPLFFIGCSSHQIAGITHQTSAHPGLELSPSCMEACSCPLDGFNPVCDPSTRVEYITPCHAGCSSWVVQDALDNSQVFYTNCSCVVEGNPVLAGSCDSTCSHLVVPFLLLVSLGSALACLTHTPSFMLILRGVKKEDKTLAVGIQFMFLRILAWMPSPVIHGSAIDTTCVHWALSCGRRAVCRYYNNDLLRNRFIGLQFFFKTGSVICFALVLAVLRQQDKEARTKESRSSPAVEQQLLVSGPGKKPEDSRV | – | – | 189 | 3.72e-05
